Results: article PMC3484714 (Journal of the American Chemical Society, 2012)
Like-named read-outs stand apart in the source and are kept apart here.

B1: corrinoid iron-sulfur protein (CFeSP) from Moorella thermoacetica, heterodimer of large and small subunit (complex)
chain 1: MPLTGLEIYKQLPKKNCGECGTPTCLAFAMNLASGKASLDSCPYVSDAAREALDAAAAPPIAKVVLGAGPTAVEMGDETELFRHDKRFYHETAIAIQVSDNLSSEELKAKVEAINGLNFDRVGQHYTIQAIAIRHDADDPAAFKAAVASVAAATQLNLVLMADDPDVLKEALAGVADRKPLLYAATGANYEAMTALAKENNCPLAVYGNGLEELAELVDKIVALGHKQLVLDPGARETSRAIADFTQIRRLAIKKRFRSFGYPIIALTTAANPLDEVLQAVNYVTKYASLVVLRTDAKEHLLPLLSWRQNLYTDPQVPIRVEEKLNEIGAVNENSPVYVTTNFSLTYYSVEGEIESTKIPSYLLSVDTDGLSVLTAYADGKFEAEKIAAVMKKVDLDNKVKRHRIIIPGAVAVLKGKLEDLTGWEVIVGPREASGIVAFARANLAS
chain 2: MAVQILRDRSRAAVQKVVLGATKDQGGTRSHTIVVGGDAALPFHHFEGEIVNRPVIGMEVQDIVPDWPDVLKDPFTDVINEPGRWAQKCVAEYGADLIYLKLDGADPEGANHSVDQCVATVKEVLQAVGVPLVVVGCGDVEKDHEVLEAVAEAAAGENLLLGNAEQENYKSLTAACMVHKHNIIARSPLDINICKQLNILINEMNLPLDHIVIDPSIGGLGYGIEYSFSIMERIRLGALQGDKMLSMPVICTVGYEAWRAKEASAPVSEYPGWGKETERGILWEAVTATALLQAGAHILLMRHPEAVARVKENIDQLMVSNAY
B2: methyltransferase (MeTr) from Moorella thermoacetica, homodimer (enzyme, UniProt Q46389 1-262, looked up)
chain: MLIIGERINGMFGDIKRAIQERDPAPVQEWARRQEEGGARALDLNVGPAVQDKVSAMEWLVEVTQEVSNLTLCLDSTNIKAIEAGLKKCKNRAMINSTNAEREKVEKLFPLAVEHGAALIGLTMNKTGIPKDSDTRLAFAMELVAAADEFGLPMEDLYIDPLILPANVAQDHAPEVLKTLQQIKMLADPAPKTVLGLSNVSQNCQNRPLINRTFLAMAMACGLDAAIADACDEALIETAATAEILLNQTVYCDSFVKMFKTR

Key:
[1] = molecular target: B2; assay: ITC
[2] = molecular target: B2; assay: SAXS
[3] = molecular target: B2; assay: SAXS; remark: listed apart in the source
[4] = molecular target: the molecule itself; assay: SAXS

Row | KD of the first binding event [1] [µM] | KD of the second binding event [1] [µM] | dH (1:1 complex) [1] [kcal/mol] | stoichiometry N [2] | stoichiometry N [3] | Binder | stoichiometry N [4]
1 | 7.7 | 111 | 4.9 | 1 CFeSP heterodimer per MeTr homodimer | 2 CFeSP heterodimer per MeTr homodimer | B1 | –
2 | – | – | – | – | – | B2 | 2
